Test results taken from US20180244776A1.
Substitutions are numbered along the chain they refer to. Blank lines part the entries; values can stand above or below the binder they belong to.

Molecular target: T1, human Sema3A (human) (UniProt Q14563)
T1 sequence (looked up): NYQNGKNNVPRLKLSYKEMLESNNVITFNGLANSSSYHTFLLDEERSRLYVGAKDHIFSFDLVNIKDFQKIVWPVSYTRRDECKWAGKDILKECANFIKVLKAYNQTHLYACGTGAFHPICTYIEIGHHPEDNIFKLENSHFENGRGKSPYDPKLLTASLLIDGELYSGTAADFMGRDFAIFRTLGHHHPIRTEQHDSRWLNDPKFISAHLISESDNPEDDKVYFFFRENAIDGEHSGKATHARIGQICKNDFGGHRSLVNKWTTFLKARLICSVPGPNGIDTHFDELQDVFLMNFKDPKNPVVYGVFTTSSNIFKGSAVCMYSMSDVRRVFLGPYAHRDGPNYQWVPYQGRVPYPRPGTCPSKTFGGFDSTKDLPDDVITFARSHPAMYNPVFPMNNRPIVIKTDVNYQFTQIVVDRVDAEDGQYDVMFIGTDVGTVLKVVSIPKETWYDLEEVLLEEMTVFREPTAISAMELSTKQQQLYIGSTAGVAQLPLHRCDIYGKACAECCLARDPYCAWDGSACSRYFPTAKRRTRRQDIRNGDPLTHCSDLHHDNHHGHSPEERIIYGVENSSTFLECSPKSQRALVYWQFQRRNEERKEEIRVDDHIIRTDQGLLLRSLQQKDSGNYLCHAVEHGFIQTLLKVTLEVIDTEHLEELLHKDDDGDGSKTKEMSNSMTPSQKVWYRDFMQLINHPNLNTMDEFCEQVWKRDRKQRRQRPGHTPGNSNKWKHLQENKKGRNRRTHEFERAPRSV
Assay: cell-based or functional assay

cell migration of U87-MG cells (transwell, 50 ug/ml scFv): 74 % of control | cell migration of patient-derived 83 cells (transwell): 28% | cell migration of patient-derived 131 cells (transwell): 7%
B1: F11 anti-Sema3A scFv antibody fragment (scFv, part only; not given: linker and His/HA tags, V domains shown, not shown: another chain or arm of the molecule; large carriers; small tags and cut ends)
VH: EVQLLESGGGLVQTGGSLRLSCAASGFTFSDYAMSWVRQAPGKGLEWVSWIYYDSGSKYYADSVKGRFTISRDNSKNTLYLQMNSLRAEDTAVYYCAKLNGDFDYWGQGTLVTVSS
VL: QSVLTQPPSASGTPGQRVTISCSGSSSNIGNNDVSWYQQLPGTAPKLLIYADSHRPSGVPDRFSGSKSGTSASLAISGLRSEDEADYYCGAWDSSLSGYVFGGGTKLTVL

cell migration of U87-MG cells (transwell, 50 ug/ml scFv): 70 % of control | cell migration of patient-derived 83 cells (transwell): 44% | cell migration of patient-derived 131 cells (transwell): 19%
B2: C10 anti-Sema3A scFv antibody fragment (scFv, part only; not given: linker and His/HA tags, V domains shown, not shown: another chain or arm of the molecule; large carriers; small tags and cut ends)
VH: B1 VH with T14P, W50G, S55D, G56S, K58Q, K65E, K98R, L99Y, N100L, D102L
VL: B1 VL with D33S, S35N, A51S, H54Q, A91S, S94Y, G98A

cell migration of U87-MG cells (transwell, 50 ug/ml scFv): 78 % of control | cell migration of patient-derived 83 cells (transwell): 21% | cell migration of patient-derived 131 cells (transwell): 11%
B3: A08 anti-Sema3A scFv antibody fragment (scFv, part only; not given: linker and His/HA tags, V domains shown, not shown: another chain or arm of the molecule; large carriers; small tags and cut ends)
VH: B1 VH with T14P, W50G, S55D, G56S, K58Q, L99N, N100L, D102R
VL: B1 VL with S23T, N31S, D33A, S35T, A51D, S53N, S94D, G98A
